Results published in a protein production outcome set (Wang et al. 2014).

Test: label from the status in PepcDB records
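Also: failed if final PepcDB status was selected cloned or expressed and not failed if soluble or beyond.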

For “MLQTLYTIILYLIQPLIWIRLWLRGRKAPAYRRRWGERYGFCAEKVKPDGIMLHSVSVGETLAAIPLVRALRHRYPNLPITVTTMTPTGSERVRSAFGDTVYHVYLPYDLPCALKRFFDQVRPKIVIIMETELWPNLIAELHKREIPLVIANARLSERSAAGYKKIGKLMRHILQRITLVAAQNQEDGNRFIALGLKRSSLKVTGSLKFDISVTPELAARAITLRRQWAPHRPVWIATSTHEGEEAIVLAAHRRLLATYPDLLLILVPRHPERFSTTQALAESMGFNYTLRSSGEQPSANTQVVIGDTMGELMLLYGIADLAFVGGSLVERGGHNPLEAAAHAIPVLMGPHTFNFKDICNKLDQADGLITVTDADSLGKEVGKLLADEDYRLYYGRHAVEVLHQNQGALQMLLTLLEPYLPQRTQLEHHHHHH”, the protein production was “not failed”.

For “MAEKSQIPDNNNNTSSSAKKPTPEIGSGSGKRYYNPPESVNPDQATLREQWKFAIRQYSKWYSHAWGTAILAGGFFFGLGWIIKGSNPLPSLQSSSKPRDEEK”, the protein production was “failed”.

With “MQTKKAFLYVFNTMSDWEYGYLIAELNSGRYFKKDLAPLKVITVGANKEMITTMGGLRIKPDISLDECTLESKDLLILPGGTTWSEEIHQPILERIGQALKIGTIVAAICGATDALANMGYLDTRKHTSNNLEYTKMVCPNYKGEKFYELGPAVSDANLVTASGIAPLEFAMEVLKKIDVFTLDALHSWYNLNKTHKPEYFFQLMNSINK” the protein production was “not failed”.

With “METKGEPYSEPCEFFNSILTGSVSRKMRLPRMGIRNFIGTSRLHFAKRAFHAQAAVDEDSRYGALLSIKEYPPFTGPGMLDGLLQVNHEFILTQSFTLADKPIAQERITRLQRQIRASDEAGTSVESDINFALDSMLNQEAVFGFHHFSLLCISRDLEGLSRCVSELGACLTDMNINWLREDLNLEAAFWAQLPGNHSYIARKAMLSSSNFSGLSSMHNFASGQAERTHWGLPITILETTSQTPYWFNFHRRDIGHFTVTGPTGSGKTVGLSFLLAQAMRVSPTPRAVFFDKDRGAEIFVRAIGGSYEILSPGTPTGFNPLQLENTGPNREFLQRLLKAMLGGRDRRDFTQEDEDIIERAVVRLMEEPAQQRNLTNLGNLLMGRARADANDLYSRLRPWTEGEKAWLFNAPHDVLSFSGRTVFGFDMTSILGNEELRTPALMYLYHRLDELLDGNPVMFFMDEGWQLLLDETFSAFIVDKMKTIRKLNGIVGFGTQSAADIAKSKVSHTLIEQSSTNIHFPNPRADEESYIKRFGLTVKEYNFIKNTPPEKRTFLIKHGNDSVIARLDLSSMPDLVKVLSGRKETIEECAALREQYGDEPENWLAKFCGWENAELEHHHHHH” the protein production was “not failed”.

With “MTGPAENSTNFPGHRLKSPLPLRLATLSLLILYPVAWFAPLMRAGLLPIFGLSEISVITGLQSLWASDVALALIVTAFALFAPYLKTIGTALIQWNLLDPRAQPALHILGKLAMADIFLIALYITLAKGISYATIEAAWGLYLFTACILASIALGLLTERQIRKATR” the protein production was “failed”.

For “MFGRCVRVKENMTYTEFVRTLSEAFSLKSTEINPIISYWMPGEMLVMIDTKRLPVYIDSQVGLNTFFMIRGRYPSLNLFVSFITTVKTLENNVSRTHGDDAESDRVSNVDENNEAVDEQDDVEDDKTDEDEEEGDNEDGDGYDDYQGDDGSMGGSTLDPTIDGSESNGEDYDYNKWNDVIVEEYGIGNVEENVILIPGEFSRLLAECTYTS”, the protein production was “failed”.

With “LDHITVVTADGKVALNQIGQISMKSPQVILVNMASFPECTAAAIKAIRESGMNLNPEVEGTLIRVPIPKVT” the protein production was “not failed”.

With “KKSKYMTPMQQKLNEVYEAVKNYTDKRGRRLSAIFLRLPSRSELPDYYLTIKKPMDMEKIRSHMMANKYQDIDSMVEDFVMMFNNACTYNEPESLIYKDALVLHKVLLETRRD” the protein production was “not failed”.

In the case of “MATEISTRGRQRAIGHEEYSLYSSLSEEELLQMAIEQSLADKTRGPTPAEASASSQTNHQPGHFHPWTRSPSSPENPPARAPLGLFQGVMQKYSSNLFKTSQMAAMDPVLKAIKEGDEEALKIMIQDGKNLAEPNKEGWLPLHEAAYYGQLGCLKVLQQAYPGTIDQRTLQEETALYLATCREHLDCLLSLLQAGAEPDISNKSRETPLYKACERKNAEAVRILVRYNADANHRCNRGWTALHESVSRNDLEVMEILVSGGAKVEAKNVYSITPLFVAAQSGQLEALRFLAKHGADINTQASDSASALYEASKNEHEDVVEFLLSQGADANKANKDGLLPLHVASKKGNYRIVQMLLPVTSRTRVRRSGISPLHLAAERNHDAVLEALLAARFDVNAPLAPERARLYEDRRSSALYFAVVNNNVYATELLLLAGADPNRDVISPLLVAIRHGCLRTMQLLLDHGANIDAYIATHPTAFPATIMFAMKCLSLLKFLMDLGCDGEPCFSCLYGNGPHPPAPRPGRFHDAPVDDKAPSVVQFCEFLSAPEVSRWAGPIIDVLLDYVGNVQLCSRLKEHIDSFEDWAVIKEKAEPPRPLAHLCRLRVRKAIGKYRIKLLDTLPLPGRLIRYLKYENTQ”, the protein production is reported as “failed”.

For “MQNTKLYSLTLIALGAAIIAVLSPLSIPIGIVPVTLQTLAVGLVATVLKARETFFAILLYLLLGFIGIPVFTGGTSGIAVLFGPTGGFLIAFLIMGTLISFGLHQINYKTIPAFIINIVGHLLMLVIGTLWLKFFTNVDWSLALKLGFTPFVIVEIIKAVLVTIFGLALIRALSHTNKYFTN”, the protein production was “failed”.

With “MFQDPTDEYIRTITAHCDLAGKEVLEVGCGTGRITRDLARHARRVVAVDPDETALAKARSAVPAPNVQFLPMPDGVLHFPPASFDVVIHTLSLHHVPLDRMNESLRAAAGLVRDGGVIVVVEPGDGGSFTEAKERFGAGSGDERPGREAAIRAMHGLDGWTVGETVLFRVRFLFADEDDFIATKLPGFGEKPEAFQQEVREFLARHRTAEGVVLDAGRRLNVLRRG” the protein production was “failed”.

With “MAEEEVGNSQRQSEEIEAMAAIYGEEWCVIDENAKIFCIRVTDFMDDPKWTLCLQVMLPSEYPGTAPPSYQLNAPWLKGQERADLSNSLEEIYVHNMGESILYQWVEKIRDALIQKSQITEPDPDVKKKTEEVEVESEEDPILEHPPENPVKTLDLKISEETQPETEELPPVAHGVPITDRRSTFQAHVAPVVCPEQVKLVLAKLYENKKIASATHNIYAYRIFCEDKQTFLQDCEDDGETAAGGRLLHLMEILNVKNVMVVVSRWYGGILLGPDRFKHINNCARNILVEKNFTNTPDESTKNLGKKKVKKDKKKNDH” the protein production was “failed”.

In the case of “MSLTTFLFRNGALLDPDHPDLLQGFEILIEDGFIREVSDKPIKSSNAHVIDVKGKTIMPGLIDLHVHVVAIEFNLPRVATLPNVLVTLRAVPIMRAMLRRGFTTVRDAGGAGYPFKQAVESGLVEGPRLFVSGRALSQTGGHADPRARSDYMPPDSPCGCCVRVGALGRVADGVDEVRRAVREELQMGADQIKIMASGGVASPTDPVGVFGYSEDEIRAIVAEAQGRGTYVLAHAYTPAAIARAVRCGVRTIEHGNLIDDETARLVAEHGAYVVPTLVTYDALASEGEKYGLPPESIAKIADVHGAGLHSIEIMKRAGVKMGFGTDLLGEAQRLQSDEFRILAEVLSPAEVIASATIVSAEVLGMQDKLGRIVPGAHADVLVVDGNPLKSVDCLLGQGEHIPLVMKDGRLFVNELEGHEGHHHHHH”, the protein production is reported as “not failed”.

In the case of “MVKTRAQRIKRMSVVDALCIRSQISVKSARYCKTVSKHLAKLQLAESGKNSSLVVCPSMGKTMKLYSMDAKRCKLSLLSTIDPSQRTPEVFMYMISSYNGIICCVNMIYDEDVENKFCDLQIWICNPITKETLLLPQGTPSFEFEPSIGVAYGSDVSDYKVYRIFCTGKIIPEERGPAEGFYVQEGRFFTKYGHSLAYECEVYSSSTGSWKNIGTVPCLPMSCSLRPYRRTGHIFVGGKVYWLVSLDAPGKILSVDLEGKFEVINLPAYADGLREDEQITEASHLINLKGSLGLLVLHPENMDVWVWKHDGERYSWVFQFKDVVPIKDDELILAVTALDNKIICVNETHWRIYDMETEKWKRRKSPRTGFRNPVVLPFTESVLPCNGGVKQ”, the protein production is reported as “failed”.

With “MAASLSEGVPETEDRKRPQFGNRFLSDPARVFHHNAWDNVKWSEEQAAAAERKVQENSSQLVCPEKQADYEVNAHKYWDDFYKVHENGFFKDRHWLFTEFPELAPSHDHLVNLHLEKQKNEVSKPRSSEDGPGLAAEQHKRPCTSHGCETRVPPVEEPVTQKLTHLEICADDFPGSSATYRILEVGCGVGNTVFPILQTNNNPDLFVYCCDFSATAIELVKTNSEYDPSRCFAFVHDLCDEDQSYPMPKDSLDVIVLIFVLSAIVPDKMQKAISKLSRLLKPGGVMLLRDYGRYDMAQLRFKKGQCLSGNFYVRGDGTRVYFFTQDELDTLFTAAGLEKVQNVVDRRLQVNRGKQLTMYRVWIQCKYSKPLVPSASQHVPTPHTTXVLRIWGFC” the protein production was “failed”.

In the case of “MSAAIAALAASYGSGSGSESDSDSEGSRCPLPAADSLMHLTKSPSAKPSLTVAVDSAPEVAVKEDLETGVHLDPAVKEVQYNPTYETMFAPELLPSHXSXPFEQWHHPRELPTGTRVPAPVTXALFPQERGSVICTCLLSGYALDPSLDNHQVSAKYIGSVEDAEKNQGLTVFETGQKKTEKRKKFKENDASNIDGFLGPWAKYVDEKDVAKPSEEEQKELDEITAKRQKKGKQEEEKPGEEKTILHVKEMYDYQGRSYLHIPQDVGVNLRSSVPPEKCYLPKKQIHVWSGHTKGVSAVRLFPLSGHLLLSCSMDCKIKLWEVYGDRRCLRTFIGHSKAVRDICFNTAGTQFLSAAYDRYLKLWDTETGQCISRFTNRKVPYCVKFNPDEDKQNLFVAGMSDKKIVQWDIRSGEIVQEYDRHLGAVNTIVFVDENRRFVSTSDDKSLRVWEWDIPVDFKYIAEPSMHSMPAVTLSPNGKWLACQSMDNQILIFGAQNRFRLNKKKIFKGHMVAGYACQVDFSPDMSYVISGDGNGKLNIWDWKTTKLYSRFKAHDKVCIGAVWHPHETSKVITCGWDGLIKLWD”, the protein production is reported as “failed”.

For “MITVFGLKSKLAPRREKLAEVIYNSLHLGLDIPKGKHAIRFLCLEKEDFYYPFDRSDDYTVIEINLMAGRMEGTKKRLIKMLFSELEYKLGIRAHDVEITIKEQPAHCWGFRGMTGDEARDLDYDIYV”, the protein production was “not failed”.

For “MASEQEKTADFGFRTVAKDEKEVMVAEVFHSVAAKYDLMNDLMSFGIHRIWKRFTIECSGVRRNQRVLDLAGGTGDLTAKFSRMVGEGGEVILADINASMLKVGREKLRNKGIIDNINYVQANAEALPFPDDFFDCITISFGLRNVTDKNKALRSMYRVLKPGGRLLVLEFSKPVIKQLSTIYDAYSFHILPRIGEAVASDAGSYRYLAESIRMHPDQETLKGMMSDAGFDSVNYFNLTGGIVALHRGFKFLEHHHHHH”, the protein production was “failed”.

With “MLWRPVGHGVEALYLATPLGRRVGYGVYVYRYRGLLVDTGPPKARPFAPEAALLTHAHEDHAGGAFRLGLPVYGSALTAALVAAPKPLRLYRRLVWGSPRPAQVEVAERVGPLHLLPTPGHAPDHVALYDPEAGLFFGGDLFLGVRASLATPGFDLQALLQSLRRALALKPRAFYCAHAGPLQAPLEALQAKLDFLEGKREEALRLKARGLTPKEALRRLFGGESPLALLSGGEMSRLAFVEALMMEP” the protein production was “failed”.

In the case of “VMPLILLPAVDVVEGRAVRLVQGKAGSQTEYGSAVDAALGWQRDGAEWIHLVDLDAAFGRGSNHELLAEVVGKLDVQVELSGGIRDDESLAAALATGCARVNVGTAALENPQWCARVIGEHGDQVAVGLDVQIIDGEHRLRGRGWETDGGDLWDVLERLDSEGCSRFVVTDITKDGTLGGPNLDLLAGVADRTDAPVIASGGVSSLDDLRAIATLTHRGVEGAIVGKALYARRFTLPQALAAVRD”, the protein production is reported as “not failed”.

In the case of “IKAVFDPDNRLNPGKICPPEGIDAPMMKVDAAKRGTWDRQIPIAVRSSWRGAMECNGNGLCFNFDVKSPMCPSMKVSNQRIHSPKGRATLVREWLRLLADRGVDPNQLEKALPEQGVSLRSLVARTRNSWHARKGEYDFSHEVKEAMSGCLACKACSTQCPIKIDVPEFRSRFLQLYHSRYLRPVRD”, the protein production is reported as “failed”.
